The labels stand for the following.
B1: Antibody 4 IgG1 (antibody, V domains shown)
VH: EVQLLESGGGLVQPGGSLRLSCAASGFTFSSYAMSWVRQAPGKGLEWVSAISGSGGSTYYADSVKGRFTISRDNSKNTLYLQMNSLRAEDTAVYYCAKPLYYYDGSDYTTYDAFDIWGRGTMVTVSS
VL: QSVLTQPPSVSGAPGQRVTISCTGSSSNIGAGYDVHWYQQLPGTAPKLLIYGDTHRPSGVPDRFSGSKSGTSASLVIAGLQAEDEADYYCQSYDTSLSGSLFGGGTKLTVL
B2: Antibody 1 IgG1 (antibody, V domains shown)
VH: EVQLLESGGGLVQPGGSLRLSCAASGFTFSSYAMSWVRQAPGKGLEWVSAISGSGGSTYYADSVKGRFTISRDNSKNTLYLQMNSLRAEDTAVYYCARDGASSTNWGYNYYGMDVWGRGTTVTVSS
VL: QAVLTQPSSASGTPGQRVTISCSGSSSNIGSNYVFWYQQFPGTAPQLLVKWNNQRPSGVPDRFSGSKSGTSASLAISGLRSEDEADYYCAAWDDSLSGLVFGGGTKLTVL
B3: Antibody 6 IgG1 (antibody, V domains shown)
VH: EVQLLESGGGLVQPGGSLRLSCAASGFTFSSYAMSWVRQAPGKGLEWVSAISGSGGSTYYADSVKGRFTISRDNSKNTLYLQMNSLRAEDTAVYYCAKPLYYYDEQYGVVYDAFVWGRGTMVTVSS
VL: B1 VL with S96V, L97R, S98L, G99H, S100H, L101V
notes: Non-germlined IgG1, lambda light chain
B4: Antibody 8 IgG1 (antibody, V domains shown)
VH: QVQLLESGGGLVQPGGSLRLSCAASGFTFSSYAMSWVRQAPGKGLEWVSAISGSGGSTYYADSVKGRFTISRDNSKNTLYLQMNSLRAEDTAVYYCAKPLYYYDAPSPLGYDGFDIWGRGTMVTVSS
VL: B1 VL with S96H, S98V, G99A, S100H, L101V
notes: as for B3
B5: Antibody 9 IgG1 (antibody, V domains shown)
VH: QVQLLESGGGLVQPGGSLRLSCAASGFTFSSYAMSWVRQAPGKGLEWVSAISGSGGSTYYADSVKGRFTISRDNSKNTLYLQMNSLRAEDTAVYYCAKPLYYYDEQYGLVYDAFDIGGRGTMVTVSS
VL: B1 VL with S96L, S98L, G99A, S100P, L101Q
notes: as for B3
B6: Antibody 5 IgG1 (antibody, V domains shown)
VH: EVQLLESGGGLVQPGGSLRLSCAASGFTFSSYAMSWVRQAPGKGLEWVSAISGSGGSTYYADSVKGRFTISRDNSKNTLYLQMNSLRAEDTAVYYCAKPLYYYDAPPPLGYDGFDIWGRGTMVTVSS
VL: B1 VL with S96A, L97G, S98G, S100H, L101H
notes: as for B3
B7: Antibody 9GL IgG2 (antibody, V domains shown)
VH: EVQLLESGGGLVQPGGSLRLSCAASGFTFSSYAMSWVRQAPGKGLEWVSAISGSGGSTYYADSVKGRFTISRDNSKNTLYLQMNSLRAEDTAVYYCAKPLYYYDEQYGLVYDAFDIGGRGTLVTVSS
VL: B1 VL with V76A, A78T, S96L, S98L, G99A, S100P, L101Q
notes: Germlined IgG2, lambda light chain; also called 28Q1 GL
B8: Antibody 7 IgG1 (antibody, V domains shown)
VH: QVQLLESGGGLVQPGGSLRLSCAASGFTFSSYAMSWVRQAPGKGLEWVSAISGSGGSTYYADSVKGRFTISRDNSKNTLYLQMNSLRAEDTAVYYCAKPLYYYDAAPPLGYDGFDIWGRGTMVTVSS
VL: B1 VL with S96D, L97A, S98A, G99R, S100H, L101Q
notes: as for B3
B9: Antibody 2 IgG1 (antibody, V domains shown)
VH: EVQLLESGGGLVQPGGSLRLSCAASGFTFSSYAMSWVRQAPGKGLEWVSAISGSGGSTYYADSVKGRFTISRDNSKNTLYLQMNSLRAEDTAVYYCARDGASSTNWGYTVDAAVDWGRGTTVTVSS
VL: B2 VL with S95H, S97E, G98Q, V100H
notes: as for B3
B10: Antibody 3 IgG1 (antibody, V domains shown)
VH: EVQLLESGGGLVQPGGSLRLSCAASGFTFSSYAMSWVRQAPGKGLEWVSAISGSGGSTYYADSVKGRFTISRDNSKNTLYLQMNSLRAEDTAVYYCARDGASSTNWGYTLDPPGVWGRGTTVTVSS
VL: B2 VL with S95A, L96A, S97R, G98V, V100L
notes: as for B3
B11: MoD2c IL1R1 (Fc fusion, human;mouse, UniProt P14778 18-177, looked up, not shown: a dimerising Fc or GST)
chain: LEADKCKEREEKIILVSSANEIDVRPCPLNPNEHKGTITWYKDDSKTPVSTEQASRIHQHKEKLWFVPAKVEDSGHYYCVVRNSSYCLRIKISAKFVENEPNLCYNAQAIFKQKLPVAGDGGLVCPYMEFFKNENNELPKLQWYKDCKPLLLDNIHFSGVKDKLIVMNVAEKHRGNYTCHASYTYLGKQYPITRVIEFITLEENKPTRPVIVSPANETMEVDLGSQIQLICNVTGQLSDIAYWKWNGSVIDEDDPVLGEDYYSVENPANKRRSTLITVLNISEIESRFYKHPFTCFAKNTHGIDAAYIQLIYPVTNFQK
notes: also called chimera without loop d2-e2
B12: MoD3 HuD1-D2 IL1R1 (Fc fusion, human;mouse, UniProt P14778 18-227, looked up, not shown: a dimerising Fc or GST)
chain: LEADKCKEREEKIILVSSANEIDVRPCPLNPNEHKGTITWYKDDSKTPVSTEQASRIHQHKEKLWFVPAKVEDSGHYYCVVRNSSYCLRIKISAKFVENEPNLCYNAQAIFKQKLPVAGDGGLVCPYMEFFKNENNELPKLQWYKDCKPLLLDNIHFSGVKDRLIVMNVAEKHRGNYTCHASYTYLGKQYPITRVIEFITLEENKPTRPVILSPRNETIEADPGSMIQLICNVTGQFSDLVYWKWNGSEIEWNDPFLAEDYQFVEHPSTKRKYTLITTLNISEVKSQFYRYPFICVVKNTNIFESAHVQLIYPVPDFK
notes: range 1-227;range 231-338
B13: MoD1b IL1R1 (Fc fusion, human;mouse, UniProt P14778 18-42, looked up, not shown: a dimerising Fc or GST)
chain: LEADKCKEREEKIILVSSANEIDVRKCPLTPNKMHGDTITWYKDDSKTPVSTEQASRIHQHKEKLWFVPAKVEDSGHYYCVVRNSSYCLRIKISAKFVENEPNLCYNAQAIFKQKLPVAGDGGLVCPYMEFFKNENNELPKLQWYKDCKPLLLDNIHFSGVKDRLIVMNVAEKHRGNYTCHASYTYLGKQYPITRVIEFITLEENKPTRPVIVSPANETMEVDLGSQIQLICNVTGQLSDIAYWKWNGSVIDEDDPVLGEDYYSVENPANKRRSTLITVLNISEIESRFYKHPFTCFAKNTHGIDAAYIQLIYPVTNFQK
notes: range 1-42;range 45-56;range 54-336
B14: MoD3b IL1R1 (Fc fusion, human;mouse, UniProt P14778 18-309, looked up, not shown: a dimerising Fc or GST)
chain: LEADKCKEREEKIILVSSANEIDVRPCPLNPNEHKGTITWYKDDSKTPVSTEQASRIHQHKEKLWFVPAKVEDSGHYYCVVRNSSYCLRIKISAKFVENEPNLCYNAQAIFKQKLPVAGDGGLVCPYMEFFKNENNELPKLQWYKDCKPLLLDNIHFSGVKDRLIVMNVAEKHRGNYTCHASYTYLGKQYPITRVIEFITLEENKPTRPVIVSPANETMEVDLGSQIQLICNVTGQLSDIAYWKWNGSVIDEDDPVLGEDYYSVENPANKRRSTLITVLNISEIESRFYKHPFICVVKNTNIFESAHVQLIYPVTNFQK
B15: MoD3a2 IL1R1 (Fc fusion, human;mouse, UniProt P14778 18-272, looked up, not shown: a dimerising Fc or GST)
chain: B11 chain with K163R, V256F, G258A, Y262Q, S263F, N266H, A268S, N269T, R272K
notes: range 1-272;range 276-292;range 290-336

The values below come from US20100221257A1 (AstraZeneca / MedImmune, published 2010).

Residue numbers refer to the chain shown, from its start. Some results are limits rather than exact numbers.

For one experiment, the target named is T1, human IL-1R1, endogenous on human cells (HeLa cells; whole blood) (human, UniProt P14778 18-569).
T1 sequence (looked up): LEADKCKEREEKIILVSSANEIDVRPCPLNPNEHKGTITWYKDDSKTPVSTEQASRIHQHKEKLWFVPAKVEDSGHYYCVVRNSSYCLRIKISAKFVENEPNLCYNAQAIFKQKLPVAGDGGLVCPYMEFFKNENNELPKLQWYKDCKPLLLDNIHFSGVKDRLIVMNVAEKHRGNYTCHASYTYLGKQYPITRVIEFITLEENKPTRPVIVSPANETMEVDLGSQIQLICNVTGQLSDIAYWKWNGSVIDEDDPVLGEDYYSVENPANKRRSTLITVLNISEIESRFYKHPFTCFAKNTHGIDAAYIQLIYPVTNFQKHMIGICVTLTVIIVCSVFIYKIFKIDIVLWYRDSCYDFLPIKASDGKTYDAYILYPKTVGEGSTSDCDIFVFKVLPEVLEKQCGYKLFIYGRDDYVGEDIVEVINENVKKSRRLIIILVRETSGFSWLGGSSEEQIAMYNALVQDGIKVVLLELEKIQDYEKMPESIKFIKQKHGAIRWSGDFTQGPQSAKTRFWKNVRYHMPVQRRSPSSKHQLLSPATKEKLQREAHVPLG
Put plainly: cell-based or functional assay.
Consider B1, for which the “IC50, inhibition of human IL-1β induced IL-8 release from HeLa cells” value is 22 nM.
B2: the “IC50, inhibition of human IL-1β induced IL-8 release from HeLa cells” value stood at 95.9 nM.

For a further experiment, the target named is T1, human IL-1R1, endogenous on human cells …. As to the kind of experiment: cell-based or functional assay. The source holds these as a separate data set.
Turning to B3, the “IC50, inhibition of IL-1 beta induced IL-8 release in HeLa cells (IgG1)” value (“IC50, inhibition … (IgG1)” for short) is 0.0078 nM.
Consider B4, for which the “IC50, inhibition … (IgG1)” value amounted to 0.0293 nM.
The same measure, in the same setting: under B5 stands 0.0115 nM.
The same measure, in the same setting: in the case of B6 it was 0.032 nM.
For B7, the “IC50, inhibition of IL-1 alpha induced IL-8 release in HeLa cells (GL IgG2)” value came out at 0.0162 nM and the “IC50, inhibition of IL-1 beta induced IL-8 release in HeLa cells (GL IgG2)” value came to 0.0069 nM.
B8: the “IC50, inhibition … (IgG1)” value was 0.0426 nM.
In the case of B9, the “IC50, inhibition … (IgG1)” value is 0.0775 nM.
Still for that read-out and setting: in the case of B10 it was 0.0494 nM.

The next experiment concerns the target Antibody 6 (Eu3+ cryptate labelled, Example 5). As to the kind of experiment: HTRF competition assay, against human IL-1R1 as reference. The method, then: (§1) Antibody was cryptate labelled with Eu³′ Cryptate labelling kit according to the manufacturer's instructions (CisBio International Cat No. 62EUSPEA) and IL-1R1/Fc (SEQ ID NO: 134, see Material and Methods) was Biotin labelled with EZ Link Sulfo-NHS-Biotin (Perbio Cat No. 21335) according to the manufacturer's instructions. Assay conditions were 0.25 nM Cryptate labelled antibody, 0.3 nM biotin labelled IL-1R1/Fc, 2.5 nM streptavidin XL^{ent!} (CisBio International Cat. No. 611SAXLB) in 1×D-PBS, 0.1% BSA, 0.4M potassium fluoride in a total volume of […] in a 384 well shallow well costar plate (3676). To the assay a dilution series (from maximum of 100 nM to 0.0017 nM) of test proteins was added and the assay incubated for 3 hours at room temperature. FRET signal was detected using a PerkinElmer EnVision plate reader using a 320 nm excitation filter and 620 nm and 665 nm emission filters. Results were calculated from the 665/620 ratio as a percentage of specific binding (signal with no competitor antigen). Results were analysed with Prism (GraphPad Software) using the sigmoidal dose response model.
Antibody binding of chimeric molecules was tested in an HTRF (Homogeneous Time Resolved Fluorescence) competition assay. […] From inhibition curves IC₅₀ values for human IL-1R1, mouse IL-1R1 and chimeric molecules were calculated (Table 12). […]
On the technique in general: Time-resolved FRET reads energy transfer from a long-lived donor to a nearby acceptor.
With B11, the “fold higher IC50 than human IL-1R1” value was more than 3 fold.

For a further experiment, the target named is T2, human histidine tagged (HIS) IL1RFc fusion protein (human).
T2 construct: Biotinylated or cryptate labelled in some assays; also called human HIS IL1RFc; huIL-1R1-Fc
Put plainly: HTRF receptor-ligand assay, IgG inhibiting HIS FLAG IL-1Ra binding to cryptate labelled human HIS IL1RFc. The procedure: The ability of lead antibodies to inhibit IL-1Ra to IL-1R1 was assessed in a receptor-ligand binding HTRF® (Homogeneous Time-Resolved Fluorescence) assay format for inhibition of HIS FLAG tagged human IL1Ra (In house, E. Coli expressed; HIS FLAG IL-1RA) binding to human histidine tagged (HIS) IL1RFc fusion protein (in house), as described in the Materials and methods section.
A titration of inhibitor was used in order to establish the clone potency as measured by IC₅₀ values in the assay. All dilutions were carried out in assay buffer as for ligand binding assay above. 5 μl of a titration of inhibitor was added to a 384 well low volume assay plate (Costar 3676). This was then followed by addition of 0.4 nM cryptate labelled HIS IL1RFc. Assay plates were then sealed and incubated at room temperature in dark for 1 hour.
B3 registered an IC50 of 0.1 nM.
Consider B4, for which the IC50 is 0.156 nM.
The same measure, in the same setting: under B5 stands 0.156 nM; under B6, 0.186 nM.
On the same count and under the same terms, in the case of B7 it was 0.208 nM.
The molecule B8 gave an IC50 of 0.168 nM.
For B9, the IC50 stood at 0.256 nM.
B10 gave an IC50 of 0.469 nM.

The target of the next experiment is T3, cynomolgus IL-1R1, endogenous on CYNOM-K1 cells (cynomolgus monkey, UniProt A0A7N9CMI5 18-569).
T3 sequence: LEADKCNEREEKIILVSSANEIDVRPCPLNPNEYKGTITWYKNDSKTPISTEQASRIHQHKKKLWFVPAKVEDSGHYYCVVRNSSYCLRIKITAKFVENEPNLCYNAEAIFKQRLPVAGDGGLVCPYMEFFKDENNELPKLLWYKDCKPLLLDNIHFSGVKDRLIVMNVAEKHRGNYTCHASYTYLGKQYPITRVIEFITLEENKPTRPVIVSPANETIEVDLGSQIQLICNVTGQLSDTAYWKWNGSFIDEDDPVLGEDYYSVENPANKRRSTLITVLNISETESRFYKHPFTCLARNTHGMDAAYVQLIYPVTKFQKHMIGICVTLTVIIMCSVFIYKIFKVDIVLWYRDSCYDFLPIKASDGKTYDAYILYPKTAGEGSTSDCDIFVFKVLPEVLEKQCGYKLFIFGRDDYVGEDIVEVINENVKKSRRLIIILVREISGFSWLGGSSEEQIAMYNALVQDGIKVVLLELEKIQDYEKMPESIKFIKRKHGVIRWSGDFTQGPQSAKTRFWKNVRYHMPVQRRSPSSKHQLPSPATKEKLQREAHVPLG
As to the kind of experiment: cell-based or functional assay.
Regarding B7, the “IC50, inhibition of IL-1β induced IL-8 release from CYNOM-K1 cells, experiment 1” value is 1.2 nM and the “IC50, inhibition of IL-1β induced IL-8 release from CYNOM-K1 cells, experiment 2” value is 1.1 nM.

The target of the next experiment is Antibody 6 (Eu3+ cryptate labelled, Example 5). Put plainly: HTRF competition: unlabelled test protein against biotin labelled human IL-1R1/Fc binding to cryptate labelled antibody. The method, then: as §1
Antibody binding of chimeric molecules was tested in an HTRF (Homogeneous Time Resolved Fluorescence) competition assay. Molecules which bound antibody at the same paratope as human IL-1R1 inhibited the binding interaction, leading to a reduction in signal. From inhibition curves IC₅₀ values for human IL-1R1, mouse IL-1R1 and chimeric molecules were calculated (Table 12). […] Chimeras that gave similar IC₅₀ values to native human IL-1R1 still contained the epitope.
In the case of B12, the IC50 turned out to be 0.147 nM.
The same measure, in the same setting: under B13 stands 0.201 nM; under B11, 0.637 nM; under B14, 0.337 nM.
B15 gave an IC50 of 0.268 nM.

The term IC50 denotes the concentration needed to halve the response being measured. A lower IC50 goes with greater potency.
